According to paper PMC12772324:

Molecular target: T1, HutC (Pseudomonas aeruginosa PAO1) (UniProt Q9HU78)
T1 sequence: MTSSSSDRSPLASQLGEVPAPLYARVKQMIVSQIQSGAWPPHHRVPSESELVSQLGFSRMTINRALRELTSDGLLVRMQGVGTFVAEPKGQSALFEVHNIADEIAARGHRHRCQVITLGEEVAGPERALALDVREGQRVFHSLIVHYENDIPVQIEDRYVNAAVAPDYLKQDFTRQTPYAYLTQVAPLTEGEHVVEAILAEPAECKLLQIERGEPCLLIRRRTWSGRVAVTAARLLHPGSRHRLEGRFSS
Assay: EMSA
Conditions: 10 mM Tris-HCl pH 7.5, 100 mM NaCl, 1 mM DTT, 3 ng/uL sheared salmon sperm DNA, 1% glycerol, 2 ng/uL probe, 20 min at room temperature; 6% native gel, 0.5x TBE

Q: For “ACGGCGGCCTGAGCCGCCGGCCAATAACAATGATCGAGGCCGTTCCCCCGGGCGCGGCCCGCAGGTTTTCCAACTGCCTTTCCCAATCGTGCATCTGGAGCGTCGAACC (double strand) [hutG -108 to -1]”, which binding is on record?
A: Its binding is “binds”.
